The series has as its target T1, LbuC2c2-WT (Leptotrichia buccalis, UniProt C7NBY4 1-1159).
T1 sequence: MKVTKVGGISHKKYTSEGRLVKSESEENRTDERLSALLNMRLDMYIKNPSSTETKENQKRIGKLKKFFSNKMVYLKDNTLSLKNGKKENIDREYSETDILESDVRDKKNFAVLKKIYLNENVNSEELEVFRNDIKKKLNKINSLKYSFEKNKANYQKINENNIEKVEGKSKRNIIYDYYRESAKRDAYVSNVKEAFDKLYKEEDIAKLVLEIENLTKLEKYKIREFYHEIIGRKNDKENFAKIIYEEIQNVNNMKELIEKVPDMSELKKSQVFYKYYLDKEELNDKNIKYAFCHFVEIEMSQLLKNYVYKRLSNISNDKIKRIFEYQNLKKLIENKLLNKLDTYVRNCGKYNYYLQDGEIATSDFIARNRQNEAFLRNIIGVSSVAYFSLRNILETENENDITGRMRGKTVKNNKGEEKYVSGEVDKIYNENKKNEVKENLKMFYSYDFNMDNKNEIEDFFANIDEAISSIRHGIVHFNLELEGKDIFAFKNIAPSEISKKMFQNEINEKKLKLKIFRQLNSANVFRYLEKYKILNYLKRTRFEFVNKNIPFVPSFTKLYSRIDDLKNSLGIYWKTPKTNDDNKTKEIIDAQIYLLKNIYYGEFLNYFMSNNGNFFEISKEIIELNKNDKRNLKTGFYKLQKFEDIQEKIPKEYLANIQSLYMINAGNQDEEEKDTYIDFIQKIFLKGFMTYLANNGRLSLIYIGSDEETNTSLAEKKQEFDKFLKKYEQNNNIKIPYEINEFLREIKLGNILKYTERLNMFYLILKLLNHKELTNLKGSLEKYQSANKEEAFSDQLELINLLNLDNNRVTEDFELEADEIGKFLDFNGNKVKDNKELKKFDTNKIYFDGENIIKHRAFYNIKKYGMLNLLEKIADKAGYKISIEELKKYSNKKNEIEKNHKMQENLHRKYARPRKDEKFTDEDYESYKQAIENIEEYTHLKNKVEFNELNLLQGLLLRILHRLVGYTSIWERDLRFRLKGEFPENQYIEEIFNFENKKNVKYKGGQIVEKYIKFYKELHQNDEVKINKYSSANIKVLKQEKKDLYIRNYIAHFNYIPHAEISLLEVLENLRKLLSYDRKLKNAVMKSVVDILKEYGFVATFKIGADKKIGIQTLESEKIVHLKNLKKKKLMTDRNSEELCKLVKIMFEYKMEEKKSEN
The series can be described thus: filter binding.

B1: mature crRNA-A_GG (crLbu_A_GG_AES432) (structured_RNA)
RNA: GGCCACCCCAAAAAUGAAGGGGACUAAAACAGGGGCAGAGAUGAUGACCCU
A word on the Kd: it is the constant that tells how readily two partners part at equilibrium. A low value points to higher affinity. Turning to B1, the Kd stood at 27.1 ± 7.5 nM.

B2: mature crRNA-A_GA (crLbu_A_mature_GA_SCK340) (structured_RNA)
RNA: GACCACCCCAAAAAUGAAGGGGACUAAAACAGGGGCAGAGAUGAUGACCCU
As to B2, the Kd worked out at 4.65 ± 0.6 nM.
